Data from patent publication US20210340231A1 (FAPON BIOTECH, published 2021).
Where a chain is given by its changes, count along the chain named.

B1: WT 1-29 (antibody, V domains shown)
VH: EVQLQQSGAELVKPGASVKLSCTASGFNLKEYYMHWMKQRTEQGLDWIGRIEPEDGETKYAPEFQGKATITADTSSNTAYLQLSTLTSEDTAVYYCARYYTSYVPFVYWGQGTLVTASA
VL: DVVMTQTPLSLSVSLGDQASISCRSSQSLLYSNKHTYLHWYLQKPGQSPKLLIFQVSQRFSGVPDRFSGSGSGTDFTLKINRVEAEDLGVYFCSNSTHLPYTFGSGTKLEIKR
notes: built as for Mutation 1
B2: Mutation 1 (antibody, V domains shown)
VH: B1 VH with E31D, Y33F, E52D, G56A, K59R, T101S, V104I
VL: B1 VL with L29I, L30I, K34R, V56I, Q58N, N95Q, Y101F
notes: No residue numbers are printed, so each chain is built as FR1-CDR1-FR2-CDR2-FR3-CDR3-FR4-constant
B3: Mutation 5 (antibody, V domains shown)
VH: B1 VH with E31D, Y33F, G56A, K59R, T101S, V104I
VL: B1 VL with L29I, L30I, V56I, Y101F
notes: built as for Mutation 1
B4: Mutation 3 (antibody, V domains shown)
VH: B1 VH with Y33F, E52D, G56A, K59R, V104I
VL: B1 VL with L29I, L30I, K34R, V56I, N95Q, Y101F
notes: built as for Mutation 1
B5: Mutation 2 (antibody, V domains shown)
VH: B1 VH with Y33F, E52D, G56A, K59R, V104I
VL: B1 VL with L29I, L30I, K34R, V56I, Q58N, N95Q, Y101F
notes: built as for Mutation 1
B6: Mutation 4 (antibody, V domains shown)
VH: B1 VH with E31D, Y33F, G56A, K59R, T101S, V104I
VL: B1 VL with L29I, L30I, V56I, Q58N, Y101F
notes: built as for Mutation 1

Each binder was assayed against T1, CTNI quality control recombinant protein (PK2-CTNI-1, 170120, produced by the applicant) (human, UniProt P19429 2-210, limits assumed) (assay: AMC sensor kinetics, antibody captured, cTnI analyte).
T1 construct: also called cardiac troponin I
T1 sequence (P19429 2-210 limits assumed): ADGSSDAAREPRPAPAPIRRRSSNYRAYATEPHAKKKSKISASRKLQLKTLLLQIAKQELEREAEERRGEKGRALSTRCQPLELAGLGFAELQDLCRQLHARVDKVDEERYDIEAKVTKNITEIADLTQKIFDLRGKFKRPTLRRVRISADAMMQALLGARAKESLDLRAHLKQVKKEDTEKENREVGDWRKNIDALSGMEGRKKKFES

Row | Binder | Kd [nM] | koff [s⁻¹] | kon [M⁻¹ s⁻¹]
1 | B1 | 1.23 | 0.00011 | 89600

Each binder was assayed against T1, CTNI quality control recombinant … (assay: indirect ELISA, cTnI coated 1 ug/ml, antibody 0 ug/ml (blank)).
Description: (§1) The cTnI quality control after diluted to 1 μg/ml with the coating solution was used for microplate coating at 100 uL per well and left at 4° C. overnight. The next day, the microplate was washed twice with the wash solution and tapped for drying. The blocking solution (20% BSA+80% PBS) was added at 120 μL per well and left for 1 h at 37° C., and the microplate was tapped for drying. The diluted cTn monoclonal antibody was added at 100 μL per well and left for 30 min at 37° C.; then the microplate was washed 5 times with the wash solution and tapped for drying. The goat anti-mouse IgG-HRP was added at 100 μL per well and left for 30 min at 37° C.; then the microplate was washed 5 times with the wash solution and tapped for drying. Colour-developing solution A was added at 50 μL per well, followed by colour-developing solution B at 50 μL per well; the mixed solution was left for 10 min; and stopping solution was added at 50 μL per well. The OD value was read out at 450 nm (reference at 630 nm) on the microplate reader.

Row | Binder | OD 450 nm (reference 630 nm) [OD]
2 | B2 | 0.032
3 | B3 | 0.042
4 | B4 | 0.028
5 | B5 | 0.04
6 | B6 | 0.03

The binders below were run against T1, CTNI quality control recombinant … (assay: indirect ELISA, cTnI coated 1 ug/ml, antibody 1.6 ug/ml).
Description: as §1

Row | Binder | OD 450 nm (reference 630 nm) [OD]
7 | B2 | 0.973
8 | B3 | 0.721
9 | B4 | 0.831
10 | B5 | 0.724
11 | B6 | 0.689

Each binder was assayed against T1, CTNI quality control recombinant … (assay: indirect ELISA, cTnI coated 1 ug/ml, antibody 0.32 ug/ml).
Description: as §1

Row | Binder | OD 450 nm (reference 630 nm) [OD]
12 | B2 | 0.341
13 | B3 | 0.189
14 | B4 | 0.301
15 | B5 | 0.233
16 | B6 | 0.314

These binders were tested against T1, CTNI quality control recombinant … (assay: indirect ELISA, cTnI coated 1 ug/ml, antibody 40 ug/ml).
Description: as §1

Row | Binder | OD 450 nm (reference 630 nm) [OD]
17 | B2 | 2.35
18 | B3 | 1.94
19 | B4 | 2.25
20 | B5 | 2.3
21 | B6 | 1.98

What follows are binders tested against T1, CTNI quality control recombinant … (assay: indirect ELISA, cTnI coated 1 ug/ml, antibody 200 ug/ml).
Description: as §1

Row | Binder | OD 450 nm (reference 630 nm) [OD]
22 | B2 | 2.4
23 | B3 | 2.2
24 | B4 | 2.37
25 | B5 | 2.42
26 | B6 | 2.15

These binders were tested against T1, CTNI quality control recombinant … (assay: indirect ELISA, cTnI coated 1 ug/ml, antibody 8 ug/ml).
Description: as §1

Row | Binder | OD 450 nm (reference 630 nm) [OD]
27 | B2 | 2.07
28 | B3 | 1.69
29 | B4 | 1.86
30 | B5 | 1.8
31 | B6 | 1.75

Each binder was assayed against T1, CTNI quality control recombinant … (assay: indirect ELISA, cTnI coated 1 ug/ml, antibody 1000 ug/ml).
Description: as §1

Row | Binder | OD 450 nm (reference 630 nm) [OD]
32 | B2 | 2.4
33 | B3 | 2.2
34 | B4 | 2.35
35 | B5 | 2.38
36 | B6 | 2.22

Target: T1, CTNI quality control recombinant …
Assay: AMC sensor kinetics, antibody captured, cTnI analyte
Remark: another data set of the same source
Description: Using the AMC sensor, the purified antibody was diluted with PBST to 10 μg/ml, and the CTNI quality control recombinant protein (PK2-CTNI-1, 170120, produced by the applicant) was serially diluted with PBST to 400 nmol/ml, 200 nmol/ml, 100 nmol/ml, 50 nmol/ml, 25 nmol/ml, 12.5 nmol/ml, 6.25 nmol/ml, and 0 nmol/ml.

Row | Binder | Kd [nM] | koff [s⁻¹] | kon [M⁻¹ s⁻¹]
37 | B2 | 0.751 | 0.000155 | 206000
